Source: publication doi:10.1101/2020.05.05.078782

Target: BD1 bromodomain construct (residues 44-168) of human Brd4 (human) (UniProt O60885)
Test: SPR

Row | Substance | Kd
1 | YFV-C (residues 1-11) peptide acetylated at lysine 8 | 540 µM
2 | YFV-C (residues 1-11) peptide acetylated at lysine 4 | 362 µM
